# Source: patent publication US20200392472
# Tested on: T1, GeoCas9 (Geobacillus stearothermophilus)
# T1 sequence: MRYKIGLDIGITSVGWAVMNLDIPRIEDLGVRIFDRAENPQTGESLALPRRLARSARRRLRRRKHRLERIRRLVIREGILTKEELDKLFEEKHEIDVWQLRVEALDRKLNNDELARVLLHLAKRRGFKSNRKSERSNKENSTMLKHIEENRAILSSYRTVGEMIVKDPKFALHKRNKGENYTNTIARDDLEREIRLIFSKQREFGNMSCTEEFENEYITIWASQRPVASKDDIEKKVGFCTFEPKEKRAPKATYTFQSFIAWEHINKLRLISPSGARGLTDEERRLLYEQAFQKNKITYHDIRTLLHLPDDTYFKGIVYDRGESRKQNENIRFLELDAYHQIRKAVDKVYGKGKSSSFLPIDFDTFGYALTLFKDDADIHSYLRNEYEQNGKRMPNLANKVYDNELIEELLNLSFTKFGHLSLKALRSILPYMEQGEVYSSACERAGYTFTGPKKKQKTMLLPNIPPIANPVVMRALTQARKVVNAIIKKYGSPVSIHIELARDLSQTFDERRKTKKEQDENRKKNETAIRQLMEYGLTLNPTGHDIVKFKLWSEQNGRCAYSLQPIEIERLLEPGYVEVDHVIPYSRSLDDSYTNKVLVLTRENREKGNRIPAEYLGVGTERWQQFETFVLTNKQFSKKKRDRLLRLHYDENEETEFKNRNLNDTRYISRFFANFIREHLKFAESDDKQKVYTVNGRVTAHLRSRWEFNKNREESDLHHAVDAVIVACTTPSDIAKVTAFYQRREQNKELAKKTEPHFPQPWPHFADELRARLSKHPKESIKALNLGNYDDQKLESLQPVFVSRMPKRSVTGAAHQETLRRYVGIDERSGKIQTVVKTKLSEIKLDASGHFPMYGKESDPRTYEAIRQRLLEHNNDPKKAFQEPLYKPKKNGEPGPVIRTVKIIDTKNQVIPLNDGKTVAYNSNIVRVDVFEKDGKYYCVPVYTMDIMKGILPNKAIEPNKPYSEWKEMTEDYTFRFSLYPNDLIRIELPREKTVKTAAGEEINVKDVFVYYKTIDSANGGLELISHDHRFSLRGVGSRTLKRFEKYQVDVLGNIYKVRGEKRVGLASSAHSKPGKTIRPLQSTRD
# Assay: cleavage_in_vitro
# Details: 21-22 nt spacer cleaves more than 5-fold faster than 20 nt; 37 C; exact substrate PAM not given
substance,measurement,value
GeoCas9 sgRNA with 20 nt spacer ; radiolabeled target DNA with CRAA PAM,cleavage rate fold increase,> 5 fold
